Experimental data: patent publication US20080015165A1, “NOVEL POLYPEPTIDE” (KYOWA HAKKO KOGYO CO., LTD., priority 1998, published 2008)

Columns and labels:
[1] = Enzyme activity for a poly-N-acetyllactosamine sugar chain, Namalwa cell extract, HPLC; format: biochemical
Source text: Using a poly-N-acetyllactosamine sugar chain, it was examined that to which GlcNAc in the sugar chains, human Fuc-TIX and 5 types of human α1,3-fucosyltransferase (Fuc-TIII, Fuc-TIV, Fuc-TV, Fuc-TVI, and Fuc-TVII) that had been cloned so far transferred fucose.
Control plasmid (pAMo) and the human Fuc-TIX expression plasmid pAMo-FT9 were introduced into Namalwa cells according to the method shown in Example 1 (3), thereby obtaining stable transformants.
Namalwa cells expressing each of the other 5 types of human α1,3-fucosyltransferases (Fuc-TIII, Fuc-TIV, Fuc-TV, Fuc-TVI, and Fuc-TVII) were obtained according to the previous report (Glycoconjugate J., 13, 802-812, Biochem. Biophys. Res. Commun., 237, 131-137, 1997).
The resultant transformants (about 1×10^7) were collected in microtubes (1.5 ml, manufactured by Eppendolf), followed by centrifugation at 550×g for 7 minutes to collect the cells.
The collected cells were washed with 0.9 ml of PBS. The washed cells were suspended in 100 μl of a solution which consisted of 20 mM HEPES (pH 7.2) and 1% TrironX-100, then allowed to stand at 4° C. for 10 minutes. Subsequently the cells were disrupted using a ultrasonicator (Bioruptor; manufactured by COSMO BIO CO., LTD.)
After disruption of the cells, each supernatant was obtained by centrifugation at 550×g for 7 minutes and used as an enzyme sample. A poly-N-acetyllactosamine sugar chain (Galβ1-4GlcNAcβ1-3Galβ1-4GlcNAcβ1-3Galβ1-4GlcNAc) consisting of 6 sugars was fluorescently labeled with 2-aminobenzamide to make a sugar chain (Galβ1-4GlcNAcβ1-3Galβ1-4GlcNAcβ1-3Galβ1-4GlcNAc-2AB: abbreviated as S in FIGS. 13 and 15, and table 3), which was used as a substrate
Florescent labeling was performed using a Signal™ 2-AB glycan labeling kit (manufactured by Oxford GlycoScience). A poly-N-acetyllactosamine sugar chain (Galβ1-4GlcNAcβ1-3Galβ1-4GlcNAcβ1-3Galβ1-4GlcNAc) was prepared according to WO98/03524.
Samples were allowed to react in 20 μl of an assay solution [50 mM cacodylate (pH 6.8), 5 mM ATP, 10 mM L-fucose, 75 μM […] (manufactured by SIGMA), 25 mM MnCl2, 15 μM fluorescently labeled sugar chain substrate, 6 μl of the cell lysate above] at 37° C. for 2 hours, followed by treatment at 100° C. for 3 minutes to stop the reaction. Next 200 μl of water was added to the samples, and the supernatant was obtained by centrifugation at 10,000×g for 5 minutes. Using an aliquot of the supernatant (10 μl), products were analyzed by HPLC under the following conditions.
HPLC: • Column—TSK-gel ODS-80TsQA column (4.6×250 mm; TOSOH CORPORATION) • Eluate—0.02 M ammonium acetate (pH 4.0) containing 7% methanol • Elution temperature—50° C. • Flow rate—1.0 ml/min. • Detection—Fluorescence spectrum photometer FB-920 (manufactured by JASCO Corporation) (excitation wavelength: 330 nm, radiation wavelength: 420 nm)

COS-1 cells = assay: Indirect fluorescent antibody staining (FACS) of transformed COS-1 cells; format: cell-based, African green monkey; settings: antibody 7LE; FIG. 3
Protocol: Further, COS-1 cells, into which a control plasmid (pCDM8), a mouse Fuc-TIX expression plasmid (pCDM8-mFT9), or a human Fuc-TIII expression plasmid (pCDM8-Le) had been introduced, were prepared. The cells were subjected to indirect fluorescent antibody staining using the anti-Lewis a sugar chain antibody (7LE, manufactured by […] CORPORATION) (see FIG. 3).
Each α1,3-fucosyltransferase expression plasmid (15 μg) was introduced into 1×10^7 COS-1 cells.
This introduction was performed by electroporation method using a gene pulser (manufactured by Bio-Rad) according to the Bio-Rad's instructional manual attached thereto. At this time, 1 μg of a luciferase expression vector, which was constructed by inserting β-actin promoter into a Hind III site of a vector pSVOA/L [Experimental Medicine, 7, 96, (1989)] was co-introduced as an index of gene transfer efficiency.

[2] = relative activity with the activity for P1 assumed to be 1
[3] = substrate S, relative value, total of products P1, P2 and P3 by each enzyme = 100%

B1: Fuc-TIX: human Fuc-TIX, 359 amino acids (SEQ ID NO:2), α1,3-fucosyltransferase expressed from pAMo-FT9 in Namalwa cells (protein)
chain: MTSTSKGILRPFLIVCIILGCFMACLLIYIKPTNSWIFSPMESASSVLKMKNFFSTKTDYFNETTILVWVWPFGQTFDLTSCQAMFNIQGCHLTTDRSLYNKSHAVLIHHRDISWDLTNLPQQARPPFQKWIWMNLESPTHTPQKSGIEHLFNLTLTYRRDSDIQVPYGFLTVSTNPFVFEVPSKEKLVCWVVSNWNPEHARVKYYNELSKSIEIHTYGQAFGEYVNDKNLIPTISACKFYLSFENSIHKDYITEKLYNAFLAGSVPVVLGPSRENYENYIPADSFIHVEDYNSPSELAKYLKEVDKNNKLYLSYFNWRKDFTVNLPRFWESHACLACDHVKRHQEYKSVGNLEKWFWN
modifications: human
[1]; [2]
  Enzymatic activity, substrate S, product P1: 7.2
  Enzymatic activity, substrate S, product P2: 1.6
  Enzymatic activity, substrate S, product P3: 0.7
[1]; [3]
  Production (%) P1: 82.7%
  Production (%) P2: 13.4%
  Production (%) P3: 3.9%
COS-1 cells
  synthesis of the Lewis a sugar chain in transformed cells: cannot synthesize
